Earlier results, collected in patent publication US8076300B2, “FGF2-binding peptides and uses thereof” (Tecnogen S.p.A., priority 2006, dated 2011).

Target: FGF2 (Homo sapiens, UniProt P09038)
Settings: cited from earlier work

Chain of FGF2 (P09038 143-288): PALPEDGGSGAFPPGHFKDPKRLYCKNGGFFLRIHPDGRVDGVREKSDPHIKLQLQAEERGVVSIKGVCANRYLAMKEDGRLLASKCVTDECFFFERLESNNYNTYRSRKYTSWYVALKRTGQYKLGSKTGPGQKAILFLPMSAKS

In the case of “SAP: classical short-pentraxin serum amyloid P component”, the FGF2 binding is given as “inefficient FGF2 binders”.
